The chains are these.
T1: B-cat-Halo (UniProt P35222 1-781)
T1 sequence (looked up): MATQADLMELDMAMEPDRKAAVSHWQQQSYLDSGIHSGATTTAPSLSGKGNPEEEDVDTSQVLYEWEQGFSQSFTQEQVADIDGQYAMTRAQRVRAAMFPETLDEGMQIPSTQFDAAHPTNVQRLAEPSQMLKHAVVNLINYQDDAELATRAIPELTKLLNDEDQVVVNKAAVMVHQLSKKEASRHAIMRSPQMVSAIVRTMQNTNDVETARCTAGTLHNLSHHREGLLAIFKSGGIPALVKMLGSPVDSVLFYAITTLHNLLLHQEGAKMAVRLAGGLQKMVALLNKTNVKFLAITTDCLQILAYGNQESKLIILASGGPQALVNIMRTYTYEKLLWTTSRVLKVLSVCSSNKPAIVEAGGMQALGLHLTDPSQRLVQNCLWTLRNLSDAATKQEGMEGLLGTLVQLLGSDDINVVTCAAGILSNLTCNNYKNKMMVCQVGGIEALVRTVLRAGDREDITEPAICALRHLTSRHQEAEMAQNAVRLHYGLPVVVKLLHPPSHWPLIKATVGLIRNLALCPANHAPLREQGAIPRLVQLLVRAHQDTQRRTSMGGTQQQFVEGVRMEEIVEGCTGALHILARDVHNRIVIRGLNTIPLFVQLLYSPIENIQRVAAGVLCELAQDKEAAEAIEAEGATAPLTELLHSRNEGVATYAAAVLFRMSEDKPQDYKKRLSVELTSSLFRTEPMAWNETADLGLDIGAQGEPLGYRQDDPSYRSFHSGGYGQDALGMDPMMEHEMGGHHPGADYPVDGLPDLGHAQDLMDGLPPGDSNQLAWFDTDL

T2: B-cat-Halo (UniProt P35222 1-781)
T2 sequence (looked up): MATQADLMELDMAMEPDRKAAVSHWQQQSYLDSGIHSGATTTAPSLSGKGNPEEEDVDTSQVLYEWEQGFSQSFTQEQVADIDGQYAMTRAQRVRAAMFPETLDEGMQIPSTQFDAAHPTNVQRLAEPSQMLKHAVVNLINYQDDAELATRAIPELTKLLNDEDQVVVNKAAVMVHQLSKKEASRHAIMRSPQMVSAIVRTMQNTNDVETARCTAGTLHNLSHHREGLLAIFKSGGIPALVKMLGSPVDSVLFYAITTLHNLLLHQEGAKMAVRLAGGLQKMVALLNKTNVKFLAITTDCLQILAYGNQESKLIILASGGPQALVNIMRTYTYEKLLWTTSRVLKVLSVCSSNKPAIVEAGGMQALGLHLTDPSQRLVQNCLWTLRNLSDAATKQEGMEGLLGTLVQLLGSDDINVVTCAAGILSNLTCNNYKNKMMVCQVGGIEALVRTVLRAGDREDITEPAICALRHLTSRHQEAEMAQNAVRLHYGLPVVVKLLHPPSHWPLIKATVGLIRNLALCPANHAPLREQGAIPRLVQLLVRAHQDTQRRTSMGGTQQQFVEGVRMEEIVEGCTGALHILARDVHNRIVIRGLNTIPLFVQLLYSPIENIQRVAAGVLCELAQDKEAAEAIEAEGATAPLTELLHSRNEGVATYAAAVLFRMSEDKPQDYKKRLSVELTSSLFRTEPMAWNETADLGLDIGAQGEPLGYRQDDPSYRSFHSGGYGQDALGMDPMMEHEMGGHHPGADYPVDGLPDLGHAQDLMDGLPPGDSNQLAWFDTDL

Starred links: 1 amine or outer side, 2 acyl side, 3 side chain; linkers in the order of their positions; H or OH if unused. Positions of bridges follow the written chain, without caps; N, C: chain ends. Non-standard residues stand in square brackets, D forms with d. Primed or numbered codes have the meaning given here. PyrS2″ = (S)-3-amino-1-((pent-4-en-1-yloxy)carbonyl)pyrrolidine-3-carboxylic acid (stapling residue), C=CCCCOC(=O)N1CC[C@@](N[*:1])(C(=O)[*:2])C1; B5(18) = 2,2-bis(4-pentenyl)glycine (2-amino-2-(pent-4-en-1-yl)hept-6-enoic acid), stitching residue, C=CCCCC(CCCC=C)(N[*:1])C(=O)[*:2]; TfeGA = (S)-2-amino-3-((carboxymethyl)(2,2,2-trifluoroethyl)amino)propanoic acid, O=C([C@H](CN(CC(=O)[*:3])CC(F)(F)F)N[*:1])[*:2]; B5(3) = 2,2-bis(4-pentenyl)glycine (stitching residue), C=CCCCC(CCCC=C)(N[*:1])C(=O)[*:2]; Phe(3-CF3) = N[C@@H](Cc1cccc(C(F)(F)F)c1)C(=O)O; Phe(3-OMe) = COc1cccc(C[C@H](N)C(=O)O)c1; Phe(2-Cl) = N[C@@H](Cc1ccccc1Cl)C(=O)O; 2Nal = N[C@@H](Cc1ccc2ccccc2c1)C(=O)O; Bta = N[C@@H](Cc1csc2ccccc12)C(=O)O; αAllylPro = C=CC[C@@]1(C(=O)O)CCCN1; tBuAla = CC(C)(C)C[C@H](N)C(=O)O; Cha = N[C@@H](CC1CCCCC1)C(=O)O; TfeGA″ = not defined here

The values below come from patent publication US20240116985A1 (published 2024).

For one test, the target named is T1, B-cat-Halo. Nature of the test: cell-based or functional assay.
Regarding Ac-[αAllylPro]D[2Nal][B5(3)]DDAAFT[PyrS2″][2C1F][Bta]S-NH2 (staple 1-4, 4-11) [I-1115], the “NanoBRET Abs IC50” value stood at 24.3 µM.
Ac-[αAllylPro]D[Cha][B5(3)]DDAA[Phe(3-CF3)]S[PyrS2″][Phe(2-Cl)][Bta]Q-NH2 (staple 1-4, 4-11 (inferred)) [I-1119]: the “NanoBRET Abs IC50” value is 19.4 µM.
Regarding Ac-[αAllylPro]D[Cha][B5(3)]DDAA[Phe(3-OMe)]S[PyrS2″][Phe(2-Cl)][Bta]Q-NH2 (staple 1-4, 4-11 (inferred)) [I-1118], the “NanoBRET Abs IC50” value stood at 29.5 µM.

A further test has as its target T2, B-cat-Halo. Nature of the test: cell-based or functional assay.
For the molecule Ac-[αAllylPro]D[tBuAla][B5(18)]DNAAFT[PyrS2″][Phe(2-Cl)][Bta]S-NH2 (staple 1-4, 4-11) [I-1016], the “NanoBRET Abs IC50” value amounted to 21.4 µM.
Same read-out and setting: to Ac-[αAllylPro]D[tBuAla][B5(18)]D[TfeGA″]SAFN[PyrS2″][Phe(2-Cl)][Bta]Q-NH2 (staple 1-4, 4-11; reading uncertain) [I-1009] belongs 33.3 µM; to Ac-[αAllylPro]D[tBuAla][B5(18)]D[TfeGA]IAFN[PyrS2″][Phe(2-Cl)][Bta]Q-NH2 (staple 1-4, 4-11) [I-1010], 13.3 µM.
As to Ac-[αAllylPro]D[tBuAla][B5(18)]DNAAFT[PyrS2″][Phe(2-Cl)][Bta]Q-NH2 (staple 1-4, 4-11) [I-1014], the “NanoBRET Abs IC50” value was 14.3 µM.
For Ac-[αAllylPro]D[tBuAla][B5(18)]DNAAFS[PyrS2″][Phe(2-Cl)][Bta]Q-NH2 (staple 1-4, 4-11) [I-1018], the “NanoBRET Abs IC50” value stood at 25.8 µM.
The same measure, in the same setting: then Ac-[αAllylPro]D[tBuAla][B5(18)]D[TfeGA]ALFN[PyrS2″][Phe(2-Cl)][Bta]Q-NH2 (staple 1-4, 4-11) [I-1002], with 29.8 µM; and Ac-[αAllylPro]D[tBuAla][B5(18)]D[TfeGA]AKFN[PyrS2″][Phe(2-Cl)][Bta]Q-NH2 (staple 1-4, 4-11) [I-1006], with over 20 µM.
Turning to Ac-[αAllylPro]D[tBuAla][B5(18)]D[TfeGA]LAFN[PyrS2″][Phe(2-Cl)][Bta]Q-NH2 (staple 1-4, 4-11) [I-1007], the “NanoBRET Abs IC50” value was 24.9 µM.
Same read-out and setting: to Ac-[αAllylPro]D[tBuAla][B5(18)]DDAAFT[PyrS2″][Phe(2-Cl)][Bta]Q-NH2 (staple 1-4, 4-11) [I-1013] belongs 12.4 µM; to Ac-[αAllylPro]D[tBuAla][B5(18)]D[TfeGA]ASFN[PyrS2″][Phe(2-Cl)][Bta]Q-NH2 (staple 1-4, 4-11) [I-1004], 10.6 µM; to Ac-[αAllylPro]D[tBuAla][B5(18)]D[TfeGA]KAFN[PyrS2″][Phe(2-Cl)][Bta]Q-NH2 (staple 1-4, 4-11) [I-1011], 20.8 µM.
